From PMC3567105, “Analysis of the Enzymatic Properties of a Broad Family of Alanine Aminotransferases” (PLoS ONE, 2013) come the findings set out here.

What all share (assay): cells, lysate or membranes
Substrate in series [1]: C[C@H](N)C(=O)O
Conditions: 10 mM 2-oxoglutarate, 0.1 M Tris-HCl pH 8.0, 20°C, 10 µM PLP, unpurified extract.

Substrate in series [2]: O=C(O)CCC(=O)C(=O)O
In kind it is biochemical, Arabidopsis thaliana. Conditions: 100 mM alanine, 0.1 M Tris-HCl pH 8.0, 20°C, 10 µM PLP, unpurified extract.

Substrate in series [3]: CC(=O)C(=O)O
The class given is biochemical, Arabidopsis thaliana. Conditions: 50 mM glutamate, 100 mM NH4Cl, 0.1 M Tris-HCl pH 8.0, 20°C, 10 µM PLP, unpurified extract.

Substrate in series [4]: O=C(O)CCC(=O)C(=O)O
In kind it is biochemical, Hordeum vulgare. Conditions: 100 mM alanine, 0.1 M Tris-HCl pH 8.0, 20°C, 10 µM PLP, unpurified extract.

Substrate in series [5]: CC(=O)C(=O)O
The class given is biochemical, Hordeum vulgare. Conditions: 50 mM glutamate, 100 mM NH4Cl, 0.1 M Tris-HCl pH 8.0, 20°C, 10 µM PLP, unpurified extract.

Substrate in series [6]: N[C@@H](CCC(=O)O)C(=O)O
In kind it is biochemical, Arabidopsis thaliana. Conditions: 10 mM pyruvate, 100 mM NH4Cl, 0.1 M Tris-HCl pH 8.0, 20°C, 10 µM PLP, unpurified extract.

Substrate in series [7]: O=C(O)CCC(=O)C(=O)O
In kind it is biochemical, Mus musculus. Conditions: 100 mM alanine, 0.1 M Tris-HCl pH 8.0, 20°C, 10 µM PLP, unpurified extract.

Substrate in series [8]: N[C@@H](CCC(=O)O)C(=O)O
In kind it is biochemical, Mus musculus. Conditions: 10 mM pyruvate, 100 mM NH4Cl, 0.1 M Tris-HCl pH 8.0, 20°C, 10 µM PLP, unpurified extract.

Substrate in series [9]: O=C(O)CCC(=O)C(=O)O
In kind it is biochemical, Pyrococcus furiosus. Conditions: 100 mM alanine, 0.1 M Tris-HCl pH 8.0, 20°C, 10 µM PLP, unpurified extract.

Substrate in series [10]: N[C@@H](CCC(=O)O)C(=O)O
The class given is biochemical, Pyrococcus furiosus. Conditions: 10 mM pyruvate, 100 mM NH4Cl, 0.1 M Tris-HCl pH 8.0, 20°C, 10 µM PLP, unpurified extract.

Substrate in series [11]: O=C(O)CCC(=O)C(=O)O
In kind it is biochemical, Saccharomyces cerevisiae. Conditions: 100 mM alanine, 0.1 M Tris-HCl pH 8.0, 20°C, 10 µM PLP, unpurified extract.

B1: AtGGAT1 (Arabidopsis thaliana) (protein)
chain: MALKALDYDTLNENVKKCQYAVRGELYLRASELQKEGKKIIFTNVGNPHALGQKPLTFPRQVVALCQAPFLLDDPNVGMLFPADAIARAKHYLSLTSGGLGAYSDSRGLPGVRKEVAEFIQRRDGYPSDPELIFLTDGASKGVMQILNCVIRGNGDGILVPVPQYPLYSATISLLGGTLVPYYLDESENWGLDVANLRQSVAQARSQGITVRAMVIINPGNPTGQCLSEANIREILKFCYNEKLVLLGDEVYQQNIYQDERPFISSKKVLMEMGSPFSKEVQLVSFHTVSKGYWGECGQRGGYFEMTNLPPRVVEEIYKVASIALSPNVSAQIFMGLMVNPPKPGDISYDQFARESKGILESLRRRARLMTDGFNSCKNVVCNFTEGAMYSFPQIRLPTGALQAAKQAGKVPDVFYCLKLLEATGISTVPGSGFGQKEGVFHLRTTILPAEDEMPEIMDSFKKFNDEFMTQYDNNFGYSKM
notes: untagged, pBAD18-Kan, E. coli TR61, desalted whole-protein extract, not purified
For B1, the values for the Km in series [1], in series [2] and in [3] were 1.9 ± 0.5 mM, 0.2 ± 0.1 mM and 0.6 ± 0.1 mM, respectively.

B2: AtAlaAT1 (Arabidopsis thaliana) (protein)
chain: SASDSSSSLPVTLDTINPKVIKCEYAVRGEIVNIAQKLQEDLKTNKDAYPFDEIIYCNIGNPQSLGQQPITFFREVLALCSYTALLDESATHGLFSSDSIERAWKILDQIPGRATGAYSHSQGIKGLRDAIADGIEARDGFPADPNDIFMTDGASPGVHMMMQLLITSEKDGILCPIPQYPLYSASIALHGGTLVPYYLDEASGWGLEISELKKQLEDARSKGITVRALAVINPGNPTGQVLSEENQRDVVKFCKQEGLVLLADEVYQENVYVPDKKFHSFKKVARSMGYGEKDLALVSFQSVSKGYYGECGKRGGYMEVTGFTSDVREQIYKMASVNLCSNISGQILASLIMSPPKPGDDSYESYIAEKDGILSSLARRAKTLEEALNKLEGVTCNRAEGAMYLFPCLHLPQKAIAAAEAEKTAPDNFYCKRLLKATGIVVVPGSGFRQVPGTWHFRCTILPQEDKIPAIVDRLTAFHQSFMDEFRD
notes: as for B1
Take B2: the results for the Km in [1], in series [2] and in series [3] were 2.4 ± 0.5 mM, 0.1 ± 0.0 mM and 0.1 ± 0.0 mM, respectively.

B3: HvAlaAT (Hordeum vulgare) (protein)
chain: MAATVAVDNLNPKVLKCEYAVRGEIVIHAQRLQEQLKTQPGSLPFDEILYCNIGNPQSLGQQPVTFFREVLALCDHPDLLQREEIKTLFSADSISRAKQILAMIPGRATGAYSHSQGIKGLRDAIASGIASRDGFPANADDIFLTDGASPGVHLMMQLLIRNEKDGILVPIPQYPLYSASIALHGGALVPYYLNESTGWGLETSDVKKQLEDARSRGINVRALVVINPGNPTGQVLAEENQYDIVKFCKNEGLVLLADEVYQENIYVDNKKFHSFKKIVRSLGYGEEDLPLVSYQSVSKGYYGECGKRGGYFEITGFSAPVREQIYKIASVNLCSNITGQILASLVMNPPKASDESYASYKAEKDGILASLARRAKALEHAFNKLEGITCNEAEGAMYVFPQICLPQKAIEAAKAANKAPDAFYALRLLESTGIVVVPGSGFGQVPGTWHFRCTILPQEDKIPAVISRFTVFHEAFMSEYRD
notes: untagged, from cDNA, pBAD18-Kan, E. coli TR61, desalted whole-protein extract, not purified
Consider B3, for which the figures for the Km in series [4] and in series [5] were 0.2 ± 0.0 mM and 0.1 ± 0.0 mM, respectively.

B4: AtAlaAT2 (Arabidopsis thaliana) (protein)
chain: SSTSEMSASDSTSSLPVTLDSINPKVLKCEYAVRGEIVNIAQKLQEDLKTNKDAYPFDEIIYCNIGNPQSLGQLPIKFFREVLALCDHASLLDESETHGLFSTDSIDRAWRILDHIPGRATGAYSHSQGIKGLRDVIAAGIEARDGFPADPNDIFLTDGASPAVHMMMQLLLSSEKDGILSPIPQYPLYSASIALHGGSLVPYYLDEATGWGLEISDLKKQLEEARSKGISVRALVVINPGNPTGQVLAEENQRDIVNFCKQEGLVLLADEVYQENVYVPDKKFHSFKKVARSLGYGEKDISLVSFQSVSKGYYGECGKRGGYMEVTGFTSDVREQIYKMASVNLCSNISGQILASLVMSPPKPGDDSYDSYMAERDGILSSMAKRAKTLEDALNSLEGVTCNRAEGAMYLFPRINLPQKAIEAAEAEKTAPDAFYCKRLLNATGVVVVPGSGFGQVPGTWHFRCTILPQEDKIPAIVNRLTEFHKSFMDEFRN
notes: as for B1
As for B4, the results for the Michaelis constant (Km) in series [2], in series [6] and in series [3] were 1.0 ± 0.1 mM, 4.9 ± 1.1 mM and 5.1 ± 0.9 mM, respectively.

B5: MmAlaAT1 (Mus musculus) (protein)
chain: ASQRNDRIQASRNGLKGKVLTLDTMNPCVRRVEYAVRGPIVQRALELEQELRQGVKKPFTEVIRANIGDAQAMGQRPITFFRQVLALCVYPNLLSSPDFPEDAKRRAERILQACGGHSLGAYSISSGIQPIREDVAQYIERRDGGIPADPNNIFLSTGASDAIVTMLKLLVAGEGRARTGVLIPIPQYPLYSAALAELDAVQVDYYLDEERAWALDIAELRRALCQARDRCCPRVLCVINPGNPTGQVQTRECIEAVIRFAFEEGLFLMADEVYQDNVYAEGSQFHSFKKVLTEMGPPYATQQELASFHSVSKGYMGECGFRGGYVEVVNMDAEVQKQMAKLMSVRLCPPVPGQALMGMVVSPPTPSEPSFKQFQAERQEVLAELAAKAKLTEQVFNEAPGIRCNPVQGAMYSFPQIQLPLKAVQRAQDLGLAPDMFFCLCLLEETGICVVPGSGFGQQEGTYHFRMTILPPMEKLRVLLEKLRHFHAKFTHEYS
notes: as for B1
Take B5: the Michaelis constant (Km) in series [7] turned out to be 0.1 ± 0.1 mM; in series [8] it was 13.0 ± 2.4 mM.

B6: PfAlaAT (Pyrococcus furiosus DSM 3638) (protein)
chain: MIRASKRALSVEYAIRDVVLPARELEKKGIKVIRLNIGDPVKFDFQPPEHMKEAYCKAIKEGHNYYGDSEGLPELRKAIVEREKRKNGVDITPDDVRVTAAVTEALQLIFGALLDPGDEILVPGPSYPPYTGLVKFYGGKPVEYRTIEEEDWQPDIDDIRKKITDRTKAIAVINPNNPTGALYDKKTLEEILNIAGEYEIPVISDEIYDLMTYEGEHISPGSLTKDVPVIVMNGLSKVYFATGWRLGYMYFVDPENKLSEVREAIDRLARIRLCPNTPAQFAAIAGLTGPMDYLKEYMKKLKERRDYIYKRLNEIPGISTTKPQGAFYIFPKIEVGPWKNDKEFVLDVLHNAHVLFVHGSGFGEYGAGHFRAVFLPPIEILEEAMDRFEKFMKERLKE
notes: as for B1
B6: the Michaelis constant (Km) was determined as 0.02 ± 0.0 mM in [9] and 0.9 ± 0.1 mM in series [10].

B7: AtGGAT2 (Arabidopsis thaliana) (protein)
chain: MSLKALDYESLNENVKNCQYAVRGELYLRASELQKEGKKIIFTNVGNPHALGQKPLTFPRQVVSLCQAPFLLDDPNVGMIFPADAIARAKHYLSLTSGGLGAYSDSRGLPGVRKEVAEFIERRDGYPSDPELIFLTDGASKGVMQILNCVIRGQKDGILVPVPQYPLYSATISLLGGTLVPYYLEESENWGLDVNNLRQSVAQARSQGITVRAMVIINPGNPTGQCLSEANIREILRFCCDERLVLLGDEVYQQNIYQDERPFISSKKVLMDMGAPISKEVQLISFHTVSKGYWGECGQRGGYFEMTNIPPRTVEEIYKVASIALSPNVSAQIFMGLMVSPPKPGDISYDQFVRESKGILESLRRRARMMTDGFNSCKNVVCNFTEGAMYSFPQIKLPSKAIQAAKQAGKVPDVFYCLKLLEATGISTVPGSGFGQKEGVFHLRTTILPAEEEMPEIMDSFKKFNDEFMSQYADNFGYSRM
notes: as for B1
In the case of B7, the Michaelis constant (Km) in [1] was found to be 1.2 ± 0.1 mM; in series [2], 8.8 ± 1.8 mM; in series [3], 18.5 ± 2.7 mM.

B8: ScAlaAT1 (Saccharomyces cerevisiae S288C) (protein)
chain: SSSWIVAQNHRRSLSGQSSLNDLRHLNRFPHHTLKTSNNEFYPAEQLTLEDVNENVLKAKYAVRGAIPMRAEELKAQLEKDPQSLPFDRIINANIGNPQQLQQKPLTYYRQVLSLLQYPELLNQNEQQLVDSKLFKLDAIKRAKSLMEDIGGSVGAYSSSQGVEGIRKSVAEFITKRDEGEISYPEDIFLTAGASAAVNYLLSIFCRGPETGVLIPIPQYPLYTATLALNNSQALPYYLDENSGWSTNPEEIETVVKEAIQNEIKPTVLVVINPGNPTGAVLSPESIAQIFEVAAKYGTVVIADEVYQENIFPGTKFHSMKKILRHLQREHPGKFDNVQLASLHSTSKGVSGECGQRGGYMELTGFSHEMRQVILKLASISLCPVVTGQALVDLMVRPPVEGEESFESDQAERNSIHEKLITRAMTLYETFNSLEGIECQKPQGAMYLFPKIDLPFKAVQEARHLELTPDEFYCKKLLESTGICTVPGSGFGQEPGTYHLRTTFLAPGLEWIKKWESFHKEFFDQYRD
notes: as for B1
B8: the results for the Km in [11] and in [1] were 0.5 ± 0.1 mM and 0.3 ± 0.1 mM, respectively.

One may read the Km as the substrate concentration at which the rate is half of its maximum.
